Experimental data: the supplement of paper PMC9112550, “Optimization of the antimicrobial peptide Bac7 by deep mutational scanning” (BMC Biology, 2022)

System: Escherichia coli TOP10
Experiment: shrunken log2 fold change of peptide-encoding DNA abundance (4.5 h post-induction vs induction); higher = less antimicrobial activity (less host growth inhibition)
Conditions: time post-induction: 4.5 h; library: site-saturation at positions 5, 18, 19, 20
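Further: peptides expressed intracellularly from a pBAD plasmid library in pooled LB shake-flask culture, induced with 0.3% L-arabinose, DNA abundance read by NGS, three biological replicates, DESeq2 with apeglm shrinkage.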

Sequence | shrunken log2 fold change
RRIRGRPPRLPRPRPRPVHQPRP | 0.228
RRIRYRPPRLPRPRPRPKEGPRP | -0.186
RRIRQRPPRLPRPRPRPFWFPRP | 0.0862
RRIRLRPPRLPRPRPRPTPYPRP | -0.00235
RRIRDRPPRLPRPRPRPEFAPRP | 1.54
RRIRTRPPRLPRPRPRPKVLPRP | -0.015
RRIRGRPPRLPRPRPRPHIDPRP | 0.301
RRIRGRPPRLPRPRPRPRIYPRP | 1.15
RRIRLRPPRLPRPRPRPFIVPRP | -0.238
RRIRFRPPRLPRPRPRPHDFPRP | -0.199
RRIRRRPPRLPRPRPRPYIIPRP | -0.427
RRIRERPPRLPRPRPRPKHRPRP | -0.457
RRIRVRPPRLPRPRPRPTRTPRP | 0.495
RRIRRRPPRLPRPRPRPHFMPRP | -0.141
RRIRDRPPRLPRPRPRPCVNPRP | 0.0261
RRIRTRPPRLPRPRPRPYTSPRP | -0.00661
RRIRWRPPRLPRPRPRPINGPRP | -0.0517
RRIRIRPPRLPRPRPRPFVWPRP | -0.157
RRIRMRPPRLPRPRPRPNLQPRP | -0.0416
RRIRPRPPRLPRPRPRPDWYPRP | -0.213
RRIRLRPPRLPRPRPRPRKEPRP | 0.325
RRIRRRPPRLPRPRPRPFQAPRP | 0.376
RRIRYRPPRLPRPRPRPNDMPRP | -1.16
RRIRDRPPRLPRPRPRPLVQPRP | 0.709
RRIRQRPPRLPRPRPRPYPRPRP | -0.258

Sequence | shrunken log2 fold change
RRIRPRPPRLPRPRPRPTMEPRP | 0.0735
RRIRGRPPRLPRPRPRPYCAPRP | -0.119
RRIRMRPPRLPRPRPRPEAEPRP | 2.18
RRIRIRPPRLPRPRPRPCQWPRP | 0.0525
RRIRPRPPRLPRPRPRPILSPRP | -0.038
RRIRMRPPRLPRPRPRPIHDPRP | 0.0367
RRIRSRPPRLPRPRPRPQCQPRP | -0.146
RRIRMRPPRLPRPRPRPNIYPRP | -0.124
RRIRTRPPRLPRPRPRPNHHPRP | -0.687
RRIRSRPPRLPRPRPRPAWLPRP | 0.534
RRIRHRPPRLPRPRPRPFFAPRP | 0.0898
RRIRCRPPRLPRPRPRPWWNPRP | -0.752
RRIRNRPPRLPRPRPRPVKLPRP | 0.032
RRIRGRPPRLPRPRPRPKLCPRP | 0.75
RRIRCRPPRLPRPRPRPPKYPRP | -0.291
RRIRNRPPRLPRPRPRPFETPRP | 0.0215
RRIRKRPPRLPRPRPRPQEKPRP | -0.0233
RRIRARPPRLPRPRPRPPEGPRP | 0.783
RRIRARPPRLPRPRPRPKQYPRP | -0.0335
RRIRERPPRLPRPRPRPEFYPRP | -0.377
RRIRGRPPRLPRPRPRPNHAPRP | -0.0738
RRIRSRPPRLPRPRPRPCFRPRP | -0.349
RRIRYRPPRLPRPRPRPMAYPRP | -0.0189
RRIRSRPPRLPRPRPRPQDTPRP | -0.265
RRIRGRPPRLPRPRPRPYKRPRP | -0.217

Sequence | shrunken log2 fold change
RRIRYRPPRLPRPRPRPKTFPRP | -0.251
RRIRIRPPRLPRPRPRPLYLPRP | -1.08
RRIRCRPPRLPRPRPRPIVMPRP | -0.235
RRIRVRPPRLPRPRPRPMEQPRP | -0.033
RRIRNRPPRLPRPRPRPNYWPRP | -0.694
RRIRVRPPRLPRPRPRPLRAPRP | 0.719
RRIRRRPPRLPRPRPRPAFNPRP | 0.201
RRIRCRPPRLPRPRPRPRTDPRP | 0.0321
RRIRGRPPRLPRPRPRPEYNPRP | 0.643
RRIRRRPPRLPRPRPRPFVWPRP | -0.218
RRIRTRPPRLPRPRPRPVCTPRP | 0.162
RRIRLRPPRLPRPRPRPRWEPRP | 0.0629
RRIRKRPPRLPRPRPRPHTLPRP | -0.168
RRIRKRPPRLPRPRPRPCWCPRP | -0.0214
RRIRWRPPRLPRPRPRPDPTPRP | 0.691
RRIRVRPPRLPRPRPRPCWQPRP | -0.0523
RRIRVRPPRLPRPRPRPEGCPRP | 0.132
RRIRTRPPRLPRPRPRPYFNPRP | -1.03
RRIRPRPPRLPRPRPRPNMAPRP | 0.478
RRIRLRPPRLPRPRPRPVEVPRP | -0.0272
RRIRKRPPRLPRPRPRPPLGPRP | 0.668
RRIRCRPPRLPRPRPRPGPMPRP | 0.326
RRIRHRPPRLPRPRPRPYMAPRP | -0.339
RRIRKRPPRLPRPRPRPRWLPRP | 0.796
RRIRMRPPRLPRPRPRPQLNPRP | 0.158

Sequence | shrunken log2 fold change
RRIRCRPPRLPRPRPRPFRYPRP | -0.29
RRIRARPPRLPRPRPRPHYGPRP | 0.0153
RRIRARPPRLPRPRPRPDLDPRP | 0.515
RRIRFRPPRLPRPRPRPMSEPRP | -0.381
RRIRPRPPRLPRPRPRPWMRPRP | 0.715
RRIRMRPPRLPRPRPRPTHSPRP | 0.483
RRIRMRPPRLPRPRPRPPIHPRP | 0.166
RRIRVRPPRLPRPRPRPHCGPRP | -0.309
RRIRVRPPRLPRPRPRPDTIPRP | -0.00658
RRIRRRPPRLPRPRPRPHEPPRP | -0.0636
RRIRHRPPRLPRPRPRPDRNPRP | -0.0482
RRIRERPPRLPRPRPRPDNCPRP | -0.0268
RRIRHRPPRLPRPRPRPAGCPRP | 0.242
RRIRERPPRLPRPRPRPTQLPRP | 0.251
RRIRPRPPRLPRPRPRPTKFPRP | -0.0516
RRIRERPPRLPRPRPRPHVCPRP | -0.0153
RRIRQRPPRLPRPRPRPAFSPRP | 0.12
RRIRPRPPRLPRPRPRPYIVPRP | -0.15
RRIRQRPPRLPRPRPRPGMEPRP | 0.0952
RRIRERPPRLPRPRPRPNMIPRP | -0.272
RRIRHRPPRLPRPRPRPPKSPRP | 0.398
RRIRVRPPRLPRPRPRPFCTPRP | -0.389
RRIRPRPPRLPRPRPRPHWFPRP | 0.0501
RRIRVRPPRLPRPRPRPWIEPRP | -0.104
RRIRCRPPRLPRPRPRPSPVPRP | 0.00196

Sequence | shrunken log2 fold change
RRIRSRPPRLPRPRPRPSMFPRP | -0.18
RRIRCRPPRLPRPRPRPQFVPRP | -0.419
RRIRDRPPRLPRPRPRPPFHPRP | 0.0293
RRIRGRPPRLPRPRPRPADKPRP | 0.365
RRIRCRPPRLPRPRPRPWNFPRP | -0.182
RRIRFRPPRLPRPRPRPYESPRP | 0.0128
RRIRNRPPRLPRPRPRPIRKPRP | -0.0111
RRIRWRPPRLPRPRPRPSVVPRP | -0.00267
RRIRPRPPRLPRPRPRPLFDPRP | 0.0231
RRIRRRPPRLPRPRPRPYGIPRP | -0.161
RRIRFRPPRLPRPRPRPGSIPRP | -0.235
RRIRIRPPRLPRPRPRPLYGPRP | -0.702
RRIRDRPPRLPRPRPRPVMQPRP | 0.023
RRIRRRPPRLPRPRPRPHCCPRP | 0.208
RRIRARPPRLPRPRPRPEKWPRP | 0.244
RRIRDRPPRLPRPRPRPNDDPRP | 0.226
RRIRDRPPRLPRPRPRPSVKPRP | -0.256
RRIRRRPPRLPRPRPRPQGMPRP | 0.133
RRIRNRPPRLPRPRPRPEQTPRP | 0.235
RRIRDRPPRLPRPRPRPLATPRP | 1.1
RRIRQRPPRLPRPRPRPNEGPRP | -0.07
RRIRPRPPRLPRPRPRPELDPRP | 0.0969
RRIRRRPPRLPRPRPRPIHPPRP | -0.261
RRIRWRPPRLPRPRPRPIFIPRP | -0.592
RRIRIRPPRLPRPRPRPPPIPRP | 0.141

Sequence | shrunken log2 fold change
RRIRTRPPRLPRPRPRPAANPRP | 0.0922
RRIRTRPPRLPRPRPRPELNPRP | 0.195
RRIRQRPPRLPRPRPRPTWGPRP | 0.168
RRIRYRPPRLPRPRPRPKWCPRP | -0.00875
RRIRDRPPRLPRPRPRPQFFPRP | -0.00144
RRIRQRPPRLPRPRPRPHRMPRP | -0.373
RRIRDRPPRLPRPRPRPVKEPRP | -0.0586
RRIRRRPPRLPRPRPRPERVPRP | 0.125
RRIRDRPPRLPRPRPRPPDYPRP | -0.0704
RRIRNRPPRLPRPRPRPAWLPRP | 0.276
RRIRMRPPRLPRPRPRPTNAPRP | 0.408
RRIRWRPPRLPRPRPRPKKVPRP | 0.0465
RRIRDRPPRLPRPRPRPGKHPRP | -0.0728
RRIRYRPPRLPRPRPRPIVAPRP | -0.246
RRIRDRPPRLPRPRPRPTEWPRP | 0.531
RRIRARPPRLPRPRPRPVAHPRP | 0.159
RRIRPRPPRLPRPRPRPRSVPRP | 0.0746
RRIRQRPPRLPRPRPRPWIEPRP | -0.0606
RRIRQRPPRLPRPRPRPPVCPRP | -0.0828
RRIRNRPPRLPRPRPRPIASPRP | 0.0215
RRIRRRPPRLPRPRPRPPNIPRP | -0.0641
RRIRWRPPRLPRPRPRPWYTPRP | -0.0512
RRIRHRPPRLPRPRPRPIAVPRP | -0.219
RRIRLRPPRLPRPRPRPSVWPRP | 0.158
RRIRHRPPRLPRPRPRPMMMPRP | -0.0507
